Test results taken from patent US20230174642A1, “AFFINITY-MATURATED ANTI-ASIC1a ANTIBODIES” (SHANGHAITECH UNIVERSITY, priority 2019, published 2023).

T1: human ASIC3a (hASIC3a-eYFP) (Homo sapiens, UniProt Q9UHC3)
T1 construct: expressed in transfected cells; host or cells: CHO-K1 (transient)
T1 sequence (Q9UHC3 1-531): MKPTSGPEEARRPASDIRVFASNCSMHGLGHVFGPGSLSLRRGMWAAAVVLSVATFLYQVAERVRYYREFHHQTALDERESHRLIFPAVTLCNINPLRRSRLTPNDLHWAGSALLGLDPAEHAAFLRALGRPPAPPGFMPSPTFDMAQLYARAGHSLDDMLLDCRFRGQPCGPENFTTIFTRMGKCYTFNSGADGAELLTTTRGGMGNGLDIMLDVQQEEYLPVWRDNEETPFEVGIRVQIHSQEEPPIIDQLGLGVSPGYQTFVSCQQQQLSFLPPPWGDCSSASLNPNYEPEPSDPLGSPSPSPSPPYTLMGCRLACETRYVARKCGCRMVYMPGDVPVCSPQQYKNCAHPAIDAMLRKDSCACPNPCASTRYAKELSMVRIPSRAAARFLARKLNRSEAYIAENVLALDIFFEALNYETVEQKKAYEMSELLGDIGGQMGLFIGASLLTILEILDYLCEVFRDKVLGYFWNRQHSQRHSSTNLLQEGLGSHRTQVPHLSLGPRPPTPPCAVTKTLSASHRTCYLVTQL

T2: human ASIC2a (hASIC2a-eYFP) (Homo sapiens, UniProt Q16515)
T2 construct: expressed in transfected cells; host or cells: CHO-K1 (transient)
T2 sequence (Q16515 1-512): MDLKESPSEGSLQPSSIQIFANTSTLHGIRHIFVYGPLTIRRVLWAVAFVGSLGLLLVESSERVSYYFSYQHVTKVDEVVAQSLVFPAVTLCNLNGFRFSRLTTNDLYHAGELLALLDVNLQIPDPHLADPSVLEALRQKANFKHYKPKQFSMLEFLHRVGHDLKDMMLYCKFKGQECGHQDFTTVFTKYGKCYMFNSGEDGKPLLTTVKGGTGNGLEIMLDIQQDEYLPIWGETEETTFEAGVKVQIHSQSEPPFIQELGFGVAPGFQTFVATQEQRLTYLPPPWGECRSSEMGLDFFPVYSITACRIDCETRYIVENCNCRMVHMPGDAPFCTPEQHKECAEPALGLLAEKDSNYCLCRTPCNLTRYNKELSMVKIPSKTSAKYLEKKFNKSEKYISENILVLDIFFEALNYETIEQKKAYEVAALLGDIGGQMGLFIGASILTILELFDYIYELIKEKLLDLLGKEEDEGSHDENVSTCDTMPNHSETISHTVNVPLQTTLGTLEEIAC

T3: rat ASIC1a-eYFP (rASIC1a-eYFP) on transiently transfected CHO-K1 cells (rat, UniProt P55926 1-526)
T3 construct: whole, on cells; not shown: eYFP fusion partner
T3 sequence (looked up): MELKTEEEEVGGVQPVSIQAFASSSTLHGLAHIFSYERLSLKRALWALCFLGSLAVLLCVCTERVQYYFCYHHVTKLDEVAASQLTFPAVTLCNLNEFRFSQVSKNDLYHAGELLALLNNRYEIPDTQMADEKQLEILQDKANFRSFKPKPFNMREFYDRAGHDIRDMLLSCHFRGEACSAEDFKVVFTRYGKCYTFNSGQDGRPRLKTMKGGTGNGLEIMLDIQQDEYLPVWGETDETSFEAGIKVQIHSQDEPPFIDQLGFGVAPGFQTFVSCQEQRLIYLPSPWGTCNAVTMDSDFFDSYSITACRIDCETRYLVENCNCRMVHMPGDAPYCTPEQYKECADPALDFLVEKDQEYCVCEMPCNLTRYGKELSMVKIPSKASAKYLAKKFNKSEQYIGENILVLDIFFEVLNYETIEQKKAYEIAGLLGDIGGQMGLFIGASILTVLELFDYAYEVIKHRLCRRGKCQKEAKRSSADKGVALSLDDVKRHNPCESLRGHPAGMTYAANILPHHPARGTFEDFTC

T4: human ASIC2a-eYFP (hASIC2a-eYFP) on transiently transfected CHO-K1 cells (human, UniProt Q16515 1-512)
T4 construct: whole, on cells; not shown: eYFP fusion partner
T4 sequence (looked up): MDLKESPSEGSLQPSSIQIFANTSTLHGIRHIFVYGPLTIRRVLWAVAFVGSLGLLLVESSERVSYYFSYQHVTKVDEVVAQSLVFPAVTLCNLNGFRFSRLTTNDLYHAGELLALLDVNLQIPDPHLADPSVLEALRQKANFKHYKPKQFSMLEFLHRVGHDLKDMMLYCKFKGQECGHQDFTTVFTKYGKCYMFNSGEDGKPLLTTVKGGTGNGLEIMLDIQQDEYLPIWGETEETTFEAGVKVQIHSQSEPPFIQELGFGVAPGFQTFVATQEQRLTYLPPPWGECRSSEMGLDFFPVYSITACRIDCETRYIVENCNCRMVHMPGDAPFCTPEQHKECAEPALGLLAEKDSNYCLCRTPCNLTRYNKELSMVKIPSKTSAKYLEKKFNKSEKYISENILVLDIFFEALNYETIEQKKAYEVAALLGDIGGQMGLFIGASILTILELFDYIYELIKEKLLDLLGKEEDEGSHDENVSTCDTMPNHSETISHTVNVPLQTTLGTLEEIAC

T5: human ASIC3a-eYFP (hASIC3a-eYFP) on transiently transfected CHO-K1 cells (human, UniProt Q9UHC3 1-531)
T5 construct: whole, on cells; not shown: eYFP fusion partner
T5 sequence (looked up): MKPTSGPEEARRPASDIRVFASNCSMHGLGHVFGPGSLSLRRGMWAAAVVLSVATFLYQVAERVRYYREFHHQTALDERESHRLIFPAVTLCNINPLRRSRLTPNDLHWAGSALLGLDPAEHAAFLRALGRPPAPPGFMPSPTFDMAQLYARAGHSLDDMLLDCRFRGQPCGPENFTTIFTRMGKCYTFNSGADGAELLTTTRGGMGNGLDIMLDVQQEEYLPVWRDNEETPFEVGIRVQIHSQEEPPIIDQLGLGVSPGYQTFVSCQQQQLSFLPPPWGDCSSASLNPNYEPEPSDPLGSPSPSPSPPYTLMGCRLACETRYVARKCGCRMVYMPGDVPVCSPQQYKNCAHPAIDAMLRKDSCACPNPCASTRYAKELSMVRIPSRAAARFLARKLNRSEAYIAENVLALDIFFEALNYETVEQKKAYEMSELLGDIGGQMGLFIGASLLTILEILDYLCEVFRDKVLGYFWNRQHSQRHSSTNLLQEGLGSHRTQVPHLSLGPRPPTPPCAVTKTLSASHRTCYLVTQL

B1: ASC06-04-IgG1: affinity-matured ASC06 derivative, VH-CDR3 DSFYGRAKGV (SEQ ID NO: 17) (antibody, V domains shown)
VH: QVQLQQSGGGLVQPGGSLRLSCAASGFTFSSYAMSWVRQAPGKGLEWVSAISGSGGSTYYADSVKGRFTISRDNSKNTLYLQMNSLRAEDTAVYYCAKDSFYGRAKGVWGQGTLVTVSS
VL: QSALTQPASVSGSPGQSITISCTGTSSDVGAYNYVSWYQQQPGKAPKLMIYGVSNRPSGVSNRFSGSKSGNAASLTISGLQAEDEADYYCSSYTSSSTYVFGTGTKLTVLG
B2: ASC06-IgG1 (antibody, V domains shown)
VH: QVQLQQSGGGLVQPGGSLRLSCAASGFTFSSYAMSWVRQAPGKGLEWVSAISGSGGSTYYADSVKGRFTISRDNSKNTLYLQMNSLRAEDTAVYYCAKDSFYGYSKGDWGQGTLVTVSS
VL: QSALTQPASVSGSPGQSITISCTGTSSDVGAYNYVSWYQQQPGKAPKLMIYGVSNRPSGVSNRFSGSKSGNAASLTISGLQAEDEADYYCSSYTSSSTYVFGTGTKLTVLG
notes: Tested as full length IgG1; also called WT antibody ASC06-IgG1; parental ASC06-IgG1 antibody
B3: ASC06-01-IgG1 (antibody, V domains shown)
VH: QVQLQQSGGGLVQPGGSLRLSCAASGFTFSSYAMSWVRQAPGKGLEWVSAISGSGGSTYYADSVKGRFTISRDNSKNTLYLQMNSLRAEDTAVYYCAKDSYFGYSKGDWGQGTLVTVSS
VL: QSALTQPASVSGSPGQSITISCTGTSSDVGAYNYVSWYQQQPGKAPKLMIYGVSNRPSGVSNRFSGSKSGNAASLTISGLQAEDEADYYCSSYTSSSTYVFGTGTKLTVLG
notes: Full length IgG1
B4: ASC06-04-IgG1 (antibody, V domains shown)
VH: QVQLQQSGGGLVQPGGSLRLSCAASGFTFSSYAMSWVRQAPGKGLEWVSAISGSGGSTYYADSVKGRFTISRDNSKNTLYLQMNSLRAEDTAVYYCAKDSFYGRAKGVWGQGTLVTVSS
VL: QSALTQPASVSGSPGQSITISCTGTSSDVGAYNYVSWYQQQPGKAPKLMIYGVSNRPSGVSNRFSGSKSGNAASLTISGLQAEDEADYYCSSYTSSSTYVFGTGTKLTVLG
notes: Full length IgG1
B5: ASC06-02-IgG1 (antibody, V domains shown)
VH: QVQLQQSGGGLVQPGGSLRLSCAASGFTFSSYAMSWVRQAPGKGLEWVSAISGSGGSTYYADSVKGRFTISRDNSKNTLYLQMNSLRAEDTAVYYCAKDSFFGRAKGSWGQGTLVTVSS
VL: QSALTQPASVSGSPGQSITISCTGTSSDVGAYNYVSWYQQQPGKAPKLMIYGVSNRPSGVSNRFSGSKSGNAASLTISGLQAEDEADYYCSSYTSSSTYVFGTGTKLTVLG
notes: Full length IgG1

How the values were obtained:
[1] = target: T1, human ASIC3a (hASIC3a-eYFP); test: FACS-based binding assay, transiently transfected CHO-K1 cells (isotype selectivity)
From the text: (§1) To examine the ASIC isotype selectivity of ASC06-IgG1 affinity-matured antibodies, plasmids encoding fusion proteins of eYFP with isoforms of […] were constructed. These plasmids included those encoding human ASIC1b (hASIC1b-eYFP), human ASIC2a (hASIC2a-eYFP), and human ASIC3a (hASIC3a-eYFP). CHO-K1 cells were transiently transfected with these plasmids and used in a FACS-based binding assay disclosed herein. Binding of ASC06-IgG1 to CHO-K1 cells expressing human ASIC1a-eYFP (hASIC1a-eYFP) was used as a positive control (data not shown and FIG. 2), and an isotype control was used as a negative control for binding (NC).

[2] = target: T2, human ASIC2a (hASIC2a-eYFP); test: as above
From the text: as §1

[3] = target: T3, rat ASIC1a-eYFP (rASIC1a-eYFP) on …; test: FACS on transiently transfected CHO-K1 cells
Protocol: (§2) To investigate the species selectivity of ASC06-IgG1 affinity-matured antibodies, plasmids encoding fusion proteins of eYFP with […] homologs of ASIC1a were constructed. These plasmids included those encoding human ASIC1a (hASIC1a-eYFP), mouse ASIC1a (mASIC1a-eYFP), and rat ASIC1a (rASIC1a-eYFP). CHO-K1 cells were transiently transfected with the ASIC1a-eYFP plasmids, and a fluorescence activated cell sorting (FACS)-based binding assay was carried out to determine binding to the homologs or isoforms of ASIC1a expressed on the cell surface. An isotype control was used as a negative control for binding (NC). ASC06-IgG1 was used as a positive control. Summarily, the CHO-K1 cells expressing the ASIC1a-eYFP (green) homologs were stained with the indicated antibody (red) and subjected to FACS.
as §1

[4] = target: T4, human ASIC2a-eYFP (hASIC2a-eYFP) on …; test: FACS on transiently transfected CHO-K1 cells
Protocol: as §2, §1

[5] = target: T5, human ASIC3a-eYFP (hASIC3a-eYFP) on …; test: FACS on transiently transfected CHO-K1 cells
Protocol: as §2, §1

Row | Molecule | binding to the hASIC3a isoform [1] | binding to the hASIC2a isoform [2] | binding result [3] | binding result [4] | binding result [5]
1 | B1 | no detectable binding | no detectable binding |  |  | 
2 | B2 |  |  | binds | no binding | no binding
3 | B3 |  |  | binds | no binding | no binding
4 | B4 |  |  | binds | no binding | no binding
5 | B5 |  |  | binds | no binding | no binding
